Reference: patent WO2018215614A1 (dated 2018)

Target: T1, mouse Gpa33 in which human Exon III had been substituted (mouse; human, UniProt Q9JKA5 22-70; Q99795 71-139; Q9JKA5 140-319, limits assumed)
T1 sequence (looked up): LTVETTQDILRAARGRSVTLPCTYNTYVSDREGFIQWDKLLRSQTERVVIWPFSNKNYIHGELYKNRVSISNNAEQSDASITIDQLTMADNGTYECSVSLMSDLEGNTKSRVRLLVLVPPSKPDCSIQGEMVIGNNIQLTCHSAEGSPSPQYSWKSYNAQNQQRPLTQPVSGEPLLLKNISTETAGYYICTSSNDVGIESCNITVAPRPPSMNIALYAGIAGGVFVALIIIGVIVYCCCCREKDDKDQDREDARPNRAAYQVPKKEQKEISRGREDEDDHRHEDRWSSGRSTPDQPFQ
Experiment: cell-based or functional assay

B1: anti-hGpa33/Rspo4 fusion protein (antibody, human IgG1, kappa)
heavy: EVQLLESGGGLVQPGGSLRLSCAASGFAFSTYDMSWVRQAPGKGLEWVATISSGGSYTYYLDSVKGRFTISRDSSKNTLYLQMNSLQAEDSAIYYCAPTTVVPFAYWGQGTLVTVSSASTKGPSVFPLAPSSKSTSGGTAALGCLVKDYFPEPVTVSWNSGALTSGVHTFPAVLQSSGLYSLSSVVTVPSSSLGTQTYICNVNHKPSNTKVDKKVEPKSCDKTHTCPPCPAPELLGGPSVFLFPPKPKDTLMISRTPEVTCVVVDVSHEDPEVKFNWYVDGVEVHNAKTKPREQYNSTYRVVSVLPVLHQDWLNGKEYKCKVSNKALPAPIEKTISKAKGQPREPQVYTLPPSREEMTKNQVSLTCLVKGFYPSDIAVEWESNGQPENNYKTTPPVLDSDGSFFLYSKLTVDKSRWQQGNVFSCSVMHEALHYHYTQKSLSLSPGKEAAAREAAAREAAAREAAARVGTGLGGNCTGCIICSEENGCSTCQQRLFLFIRREGIRQYGKCLHDCPPGYFGIRGQEVNRCKKCGATCESCFSQDFCIRCKRQFYLYKGKCLPTCPPGTLAHQNTRECQGE
light: DIQMTQSPSSLSVSVGDRVTITCKASQNVRTVVAWYQQKPGLAPKTLIYLASNRHTGVPSRFSGSGSGTDFTFTISSLQPEDIATYFCQQHWSYPLTFGQGTKVEVKRRTVAAPSVFIFPPSDEQLKSGTASVVCLLNNFYPREAKVQWKVDNALQSGNSQESVTEQDSKDSTYSLSSTLTLSKADYEKHKVYACEVTHQGLSSPVTKSFNRGEC
difference in cell viability (ATP-driven luciferase cell viability assay), humanized Gpa33 organoids against wildtype organoids, at 0.2 nM fusion protein: 200 fold | difference in cell viability (ATP-driven luciferase cell viability assay), humanized Gpa33 organoids against wildtype organoids, at 0.4 nM fusion protein: 25 fold
